The labels stand for the following.
B1: CPEB3 Ribozyme (parent)
chain: GGGGGCCACAGCAGAAGCGUUCACGUCGCGGCCCCUGUCAGAUUCUGGUGAAUCUGCGAAUUCUGCUGU

This data set covers variants of B1. Put plainly: self-cleavage, relative activity (ratio to wild type); higher = more cleavage; co-transcriptional.
U38G G58U: the self-cleavage worked out at 0.294.

Consider C39A C66G, for which the self-cleavage was determined as 0.535.

Consider G37U C39G, for which the self-cleavage amounted to 0.214.

For the variant G37U C39A, the self-cleavage is 0.273.

C39A U49C: the self-cleavage stood at 0.811.

Consider C39A U49G, for which the self-cleavage is 0.928.

As for U38C G47C, the self-cleavage came out at 0.938.

U38C G41U: the self-cleavage is 0.705.

With U38A G41A, the self-cleavage worked out at 0.718.

For the variant U38A G41U, the self-cleavage came to 0.795.

Consider U38G A60C, for which the self-cleavage was 0.137.

Consider G37U U61A, for which the self-cleavage was 0.263.

On to G37U G41U, for which the self-cleavage turned out to be 0.201.

As for U38G G50C, the self-cleavage amounted to 0.161.

In the case of U38G G50A, the self-cleavage came out at 0.204.

For the variant G37C U64A, the self-cleavage came to 0.267.

Take G37C U64C: the self-cleavage stood at 0.162.

Consider U38C U62A, for which the self-cleavage was determined as 0.791.

In the case of C39A U43G, the self-cleavage was 0.295.

As for U38C A52G, the self-cleavage was found to be 0.909.

U38C A52U: the self-cleavage was 0.895.

As for U38A A52C, the self-cleavage was 0.898.

For the variant G37U A40U, the self-cleavage stood at 0.257.

Consider U38C U44G, for which the self-cleavage worked out at 0.851.

As to G37C U62C, the self-cleavage is 0.276.

Consider U38A U64A, for which the self-cleavage is 0.799.

Take U38A U64G: the self-cleavage was found to be 0.858.

Regarding U38A G50A, the self-cleavage came to 0.952.

In the case of U38C U43G, the self-cleavage turned out to be 0.866.

In the case of C39A G58C, the self-cleavage is 0.907.

Turning to C39A G48C, the self-cleavage amounted to 0.912.

C39A G48U: the self-cleavage was determined as 0.903.

U38A A40C: the self-cleavage came to 0.703.

U38A A40G: the self-cleavage amounted to 0.808.

As for C39A C57A, the self-cleavage came out at 0.337.

As to G37U G65C, the self-cleavage was found to be 0.228.

As for U38G G48A, the self-cleavage came to 0.21.

As for U38C U55G, the self-cleavage worked out at 0.242.

Turning to U38G U61A, the self-cleavage amounted to 0.267.

For the variant U38G U61G, the self-cleavage worked out at 0.436.

With U38G U61C, the self-cleavage is 0.289.

G37U U53A: the self-cleavage turned out to be 0.195.

Turning to U38C C63A, the self-cleavage is 0.71.

In the case of U38C C63G, the self-cleavage worked out at 0.693.

On to U38G G41A, for which the self-cleavage worked out at 0.245.

As for U38G G41U, the self-cleavage worked out at 0.238.

As to C39A C45G, the self-cleavage worked out at 0.659.

Regarding U38C U64A, the self-cleavage was determined as 0.772.

In the case of U38C A59C, the self-cleavage was determined as 0.306.

U38C A59G: the self-cleavage was found to be 1.01.

Turning to G37C U53C, the self-cleavage amounted to 0.284.

Regarding G37C U53G, the self-cleavage stood at 0.129.

Turning to U38C C54A, the self-cleavage turned out to be 0.61.

Regarding U38C U61G, the self-cleavage was 0.759.

Turning to U38C U61A, the self-cleavage turned out to be 0.759.

In the case of U38G U44A, the self-cleavage worked out at 0.149.

Regarding G37U C66U, the self-cleavage stood at 0.245.

With G37U A60G, the self-cleavage amounted to 0.208.

G37U A60C: the self-cleavage was found to be 0.224.

For G37U A60U, the self-cleavage turned out to be 0.195.

Regarding G37U U62C, the self-cleavage came to 0.299.

C39A G68A: the self-cleavage came out at 0.925.

Consider C39A G47C, for which the self-cleavage was 0.945.

For U38G U46G, the self-cleavage was found to be 0.308.

With G37C U49A, the self-cleavage was 0.307.

For the variant U38G A51U, the self-cleavage was determined as 0.295.

Turning to U38G A51G, the self-cleavage was 0.258.

Take G37U G47A: the self-cleavage was found to be 0.324.

As for U38C A60U, the self-cleavage turned out to be 0.331.

As for U38A U43A, the self-cleavage amounted to 0.784.

U38G C39U: the self-cleavage worked out at 0.322.

Take U38G C39G: the self-cleavage stood at 1.01.

In the case of U38G U53A, the self-cleavage is 0.287.

Regarding U38G U53C, the self-cleavage was found to be 0.24.

U38G U53G: the self-cleavage came to 0.255.

Turning to G37U A52C, the self-cleavage came out at 0.281.

Take U38A A60U: the self-cleavage came to 0.453.

As to G37U C45A, the self-cleavage came out at 0.295.

In the case of G37U C54U, the self-cleavage turned out to be 0.332.

With U38C U53C, the self-cleavage was 0.763.

Consider U38C U53A, for which the self-cleavage is 0.883.

For the variant U38C U53G, the self-cleavage amounted to 0.682.

Consider U38A G65A, for which the self-cleavage was 0.733.

In the case of U38G C57G, the self-cleavage was found to be 0.121.

For U38C U67G, the self-cleavage was 0.925.

On to U38G G47C, for which the self-cleavage is 0.201.

On to G37U G48C, for which the self-cleavage stood at 0.326.

For the variant G37U C57G, the self-cleavage turned out to be 0.209.

In the case of G37U U43G, the self-cleavage was 0.298.

In the case of C39A A42U, the self-cleavage came out at 0.551.

On to G37U G68U, for which the self-cleavage stood at 0.375.

Regarding U38A G56C, the self-cleavage worked out at 0.466.

As for U38A G56U, the self-cleavage came to 0.875.

Take U38A U69G: the self-cleavage was determined as 0.971.

In the case of U38A U69C, the self-cleavage amounted to 1.03.

Turning to U38A C57G, the self-cleavage was determined as 0.297.

Turning to G37C U67A, the self-cleavage stood at 0.274.

Turning to G37C U67G, the self-cleavage was 0.188.

For U38A U67C, the self-cleavage amounted to 0.943.

For G37U G58A, the self-cleavage amounted to 0.17.

In the case of C39A U46A, the self-cleavage is 0.925.

Regarding U38A C45U, the self-cleavage was determined as 0.918.

Consider U38A C45A, for which the self-cleavage is 0.875.

As for U38A C39G, the self-cleavage came to 0.994.

As for U38A C39A, the self-cleavage was 0.748.

As to U38G U62G, the self-cleavage amounted to 0.183.

In the case of U38G U62A, the self-cleavage stood at 0.291.

Take G37U A51U: the self-cleavage worked out at 0.252.

Consider G37U A51G, for which the self-cleavage is 0.266.

With G37U A51C, the self-cleavage turned out to be 0.234.

In the case of U38C G48C, the self-cleavage was 0.986.

Regarding U38C G48U, the self-cleavage amounted to 1.

Regarding U38A G68A, the self-cleavage worked out at 0.922.

Regarding U38G G68C, the self-cleavage amounted to 0.175.

Regarding U38G G68U, the self-cleavage was found to be 0.273.

Turning to U38A U44C, the self-cleavage stood at 0.802.

For the variant U38A C54A, the self-cleavage was 0.797.

Regarding U38A C54G, the self-cleavage is 0.8.

Take U38C U46G: the self-cleavage was found to be 0.921.

Regarding U38G C54U, the self-cleavage amounted to 0.29.

Take U38G C54G: the self-cleavage was determined as 0.302.

With G37U U55A, the self-cleavage worked out at 0.187.

Turning to U38C U49A, the self-cleavage stood at 0.955.

On to C39A G41A, for which the self-cleavage is 0.383.

On to C39A G41C, for which the self-cleavage stood at 0.396.

On to U38G A40C, for which the self-cleavage was determined as 0.17.

On to U38G A40G, for which the self-cleavage was 0.257.

For U38G A40U, the self-cleavage was 0.179.

With U38G C63U, the self-cleavage was 0.229.

As for U38G C63G, the self-cleavage stood at 0.224.

On to U38A A51C, for which the self-cleavage is 0.908.

U38A A51G: the self-cleavage is 0.89.

Regarding U38G A52U, the self-cleavage was 0.156.

As to U38G A59U, the self-cleavage turned out to be 0.228.

On to U38C C66U, for which the self-cleavage was 0.947.

As to U38A A42C, the self-cleavage stood at 0.892.

In the case of U38A A42G, the self-cleavage was found to be 0.755.

U38A U53A: the self-cleavage came out at 0.864.

Take U38A U53G: the self-cleavage worked out at 0.706.

As to U38A U62G, the self-cleavage came to 0.742.

Turning to C39A A59G, the self-cleavage came to 0.911.

For C39A A59U, the self-cleavage stood at 0.446.

For U38C G50U, the self-cleavage turned out to be 0.952.

With U38G G65C, the self-cleavage is 0.161.

On to U38C C57U, for which the self-cleavage worked out at 0.409.

Turning to U38C C57A, the self-cleavage worked out at 0.3.

For the variant G37U U44C, the self-cleavage was 0.188.

In the case of U38G C45G, the self-cleavage was 0.27.

On to G37C U69A, for which the self-cleavage is 0.336.

On to G37C U69C, for which the self-cleavage was found to be 0.428.

In the case of U38A U46A, the self-cleavage came out at 0.941.

Regarding U38A U46C, the self-cleavage was determined as 0.954.

Regarding G37U A59G, the self-cleavage was 0.412.

As for G37U A59C, the self-cleavage was 0.218.

As to G37U U64G, the self-cleavage turned out to be 0.227.

With U38G, the self-cleavage worked out at 0.242.

For U38C, the self-cleavage stood at 0.961.

Regarding U38A, the self-cleavage stood at 0.929.

For the variant G37U G50A, the self-cleavage stood at 0.284.

As to G37U G50C, the self-cleavage was 0.315.

Consider U38A G58C, for which the self-cleavage came to 0.921.

Regarding U38C U69G, the self-cleavage was determined as 1.05.

For G37U U69A, the self-cleavage worked out at 0.358.

With G37U U69G, the self-cleavage is 0.354.

As to U38C A51U, the self-cleavage came out at 0.935.

C39A A51U: the self-cleavage came out at 0.728.

Take U38C C45G: the self-cleavage worked out at 0.92.

Values taken from the RNAGym collection of RNA variant scans (doi:10.7554/elife.80360).
